From the supplement of paper PMC12764529 come the findings set out here.

± gives the half width of the 95% confidence interval.

Data set [1] in a line: folding stability dG unfold from chymotrypsin proteolysis; higher = more stable. The essentials:
(§1)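 K50 was inferred by Bayesian fitting of sequencing counts obtained after protease digestion of designed mini-proteins. Unfolding free energy was derived by comparison with a sequence-predicted unfolded-state K50 and a shared folded-state K50, for each protease or both combined. The mini-proteins were under 80 residues, had no cysteine, were carried in a PA-tagged cDNA display construct, and were kept only if AlphaFold2 dimer inter-PAE exceeded 15.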

A short description of data set [2]: folding stability dG unfold from trypsin proteolysis; higher = more stable. The essentials: as §1
Data set [3] can be described thus: folding stability dG unfold (combined trypsin and chymotrypsin); higher = more stable. The essentials:
as §1

For the sequence “SAGGSAGGSAGGKIKLTVEKTEDGYLRVTAEDEDTKETVVITLPKGTTLEEALKLLKELSAGGSAGGSAGGS [r10_825_TrROS_Hall]”, the “folding stability dG unfold” value in data set [1] was found to be 3.08 ± 0.14 kcal/mol; in data set [2] it was 3.14 ± 0.11 kcal/mol; in data set [3], 3.19 ± 0.17 kcal/mol.

For the sequence “SAGGSAGGSAGGKKIHLFMPKEVAEKFAKELEKLGIDSKEVEIEFHEVDIPPSLPPELKSAGGSAGGSAGGS [r10_602_TrMRF]”, the “folding stability dG unfold” value in data set [1] was -0.594 ± 0.48 kcal/mol; in data set [2] it was -0.0238 ± 0.15 kcal/mol; in data set [3], -0.0833 ± 0.27 kcal/mol.

As for “SAGGSAGGSAGGKKIIKVNLRIYDPVNPKVTVLPIEAPFDEIIKIAKEIAAPDQVVEISSAGGSAGGSAGGS [r10_397_TrMRF]”, the “folding stability dG unfold” value is -0.506 ± 0.097 kcal/mol in data set [1], -0.844 ± 0.16 kcal/mol in data set [2] and -0.654 ± 0.16 kcal/mol in data set [3].

Turning to “SAGGSAGGSAGGKKIKILVKIKDLKKLKGLKPGDLALIEIEVEVKPEKKTEKKYTYKKKSAGGSAGGSAGGS [r10_1233_TrROS_Hall]”, the “folding stability dG unfold” value in data set [1] is 0.908 ± 0.29 kcal/mol; in data set [2], 0.432 ± 0.23 kcal/mol; in data set [3], 0.693 ± 0.21 kcal/mol.

Take “SAGGSAGGSAGGKKKYIVVKVKVEVDENGNVTITLPNGKKITIPKEKVEVKPDGYLVIKLSAGGSAGGSAGG [r7_684_TrROS_Hall]”: the “folding stability dG unfold” value is 2.05 ± 0.028 kcal/mol in data set [1], 1.98 ± 0.07 kcal/mol in data set [2] and 2.05 ± 0.087 kcal/mol in data set [3].

On to “SAGGSAGGSAGGKKTITVTVKINGKTYRVEIKYDEKTKKVTIKIEVNGKKYEFEFELKDSAGGSAGGSAGGS [r10_438_TrROS_Hall]”, for which the “folding stability dG unfold” value in data set [1] came to 4.42 ± 0.25 kcal/mol; in data set [2] it was 4.73 ± 0.96 kcal/mol; in data set [3] it was 4.54 ± 0.36 kcal/mol.

As for “SAGGSAGGSAGGKKTLVIEFDLEPGGLTAEEIEELLRPYTGKEVRLETHPDGKPVAVVEGSAGGSAGGSAGG [r7_330_TrMRF]”, the “folding stability dG unfold” value in data set [1] was -0.616 ± 0.44 kcal/mol; in data set [2], -0.488 ± 0.1 kcal/mol; in data set [3], -0.393 ± 0.16 kcal/mol.

Consider “SAGGSAGGSAGGKKYIIKNKKTNKYIEVDVIEKDGKLYVYDKKTGKVHEVSLKDLEIVPSAGGSAGGSAGGS [r10_28_TrROS_Hall]”, for which the figures for the “folding stability dG unfold” value in data set [1], in data set [2] and in data set [3] were 2.56 ± 0.036 kcal/mol, 1.84 ± 0.088 kcal/mol and 2.33 ± 0.089 kcal/mol, respectively.

In the case of “SAGGSAGGSAGGKLKPGQKVLVIELKVTKVKTKKDGKKEFEFEITRIEIVEVPEGAKILSAGGSAGGSAGGS [r10_826_TrROS_Hall]”, the entries for the “folding stability dG unfold” value in data set [1], in data set [2] and in data set [3] were 1.01 ± 0.051 kcal/mol, 1.78 ± 0.051 kcal/mol and 1.46 ± 0.14 kcal/mol, respectively.

As for “SAGGSAGGSAGGKLPPGDIIPMEFEAEFPVYKRDPEGGDWEPIGPMRIDFTIIIRLPPGSAGGSAGGSAGGS [r10_1115_TrROS]”, the figures for the “folding stability dG unfold” value in data set [1], in data set [2] and in data set [3] were 2.91 ± 0.14 kcal/mol, 2.5 ± 0.22 kcal/mol and 2.67 ± 0.22 kcal/mol, respectively.

As to “SAGGSAGGSAGGKMWIMIPKNEPINLPPGFDKVEIMTNPDDGYVMIRVDSPEDFKRLLEASAGGSAGGSAGG [r7_172_TrROS]”, the “folding stability dG unfold” value in data set [1] came out at 0.866 ± 0.058 kcal/mol; in data set [2] it was 1.405 ± 0.01 kcal/mol; in data set [3], 1.2 ± 0.065 kcal/mol.

Regarding “SAGGSAGGSAGGKPKIEIELTFIDEDGYAYRLRAEIEIDEDGNVHIEVEIEKVPLPEGLSAGGSAGGSAGGS [r10_563_TrROS_Hall]”, the figures for the “folding stability dG unfold” value in data set [1], in data set [2] and in data set [3] were 3.28 ± 0.13 kcal/mol, 2.9 ± 0.14 kcal/mol and 3.18 ± 0.21 kcal/mol, respectively.

On to “SAGGSAGGSAGGKPKKVILIEADTLEEALAAAEALAPPGAKVTVTLVERDGKLYLLVTVDSAGGSAGGSAGG [r7_877_TrROS_Hall]”, for which the “folding stability dG unfold” value turned out to be 3.75 ± 0.046 kcal/mol in data set [1], 2.16 ± 0.045 kcal/mol in data set [2] and 3.351 ± 0.028 kcal/mol in data set [3].

With “SAGGSAGGSAGGKPKTVKIIRDKKTNRLLIERDGKVYEFDVDNVEVREVTLEDLKEEELSAGGSAGGSAGGS [r10_512_TrROS_Hall]”, the “folding stability dG unfold” value was 1.2 ± 0.045 kcal/mol in data set [1], 0.576 ± 0.14 kcal/mol in data set [2] and 0.88 ± 0.14 kcal/mol in data set [3].

Consider “SAGGSAGGSAGGKPKVIEIEITDKNGKKRKIKLIEKDGYVYLYDEKTGKLVKKFKLKDLSAGGSAGGSAGGS [r10_589_TrROS_Hall]”, for which the figures for the “folding stability dG unfold” value in data set [1], in data set [2] and in data set [3] were 3.92 ± 0.051 kcal/mol, 3.04 ± 0.097 kcal/mol and 3.61 ± 0.14 kcal/mol, respectively.

In the case of “SAGGSAGGSAGGKPKVIVIEGMSLEEIKALLAELPEDVTIVVRLPDGSTRTLTVRLPEPSAGGSAGGSAGGS [r10_514_TrROS_Hall]”, the figures for the “folding stability dG unfold” value in data set [1], in data set [2] and in data set [3] were 1.13 ± 0.077 kcal/mol, 1.78 ± 0.077 kcal/mol and 1.48 ± 0.095 kcal/mol, respectively.

As for “SAGGSAGGSAGGKPKYKIVEIKYDKETKTVTLKIKLENGETVEITVPPGTSLEDILKALSAGGSAGGSAGGS [r10_984_TrROS_Hall]”, the entries for the “folding stability dG unfold” value in data set [1], in data set [2] and in data set [3] were 3.9 ± 0.061 kcal/mol, 3.57 ± 0.098 kcal/mol and 3.83 ± 0.055 kcal/mol, respectively.

As to “SAGGSAGGSAGGKPVKLEISFDKETNTITIKAVDEENKTVTETTIKVTFLPPPPPPPPKSAGGSAGGSAGGS [r10_331_TrROS_Hall]”, the “folding stability dG unfold” value in data set [1] was 2.14 ± 0.37 kcal/mol; in data set [2], 1.09 ± 0.12 kcal/mol; in data set [3] it was 2.03 ± 0.48 kcal/mol.

As for “SAGGSAGGSAGGKRTLLIRVPPGASVEQVLEELKRLLPPGAKITVELDPETRTLRVTIDSAGGSAGGSAGGS [r10_163_TrROS_Hall]”, the “folding stability dG unfold” value amounted to 4.12 ± 0.057 kcal/mol in data set [1], 3.28 ± 0.075 kcal/mol in data set [2] and 3.89 ± 0.12 kcal/mol in data set [3].

For the sequence “SAGGSAGGSAGGKRYRVTELEVVEVDGEKRLLVRFEDGRTQAFPAGAKISPDGAEIELLPSAGGSAGGSAGG [r7_931_TrROS_Hall]”, the results for the “folding stability dG unfold” value in data set [1], in data set [2] and in data set [3] were 1.44 ± 0.033 kcal/mol, 0.469 ± 0.042 kcal/mol and 1.14 ± 0.04 kcal/mol, respectively.

Turning to “SAGGSAGGSAGGKSKTLRLYNKDTGVAVTVTLNEDGSLSVTVEPLPPPPPVEEKVVVKGSAGGSAGGSAGGS [r10_664_TrROS_Hall]”, the “folding stability dG unfold” value was determined as 1.37 ± 0.13 kcal/mol in data set [1], 0.527 ± 0.071 kcal/mol in data set [2] and 1.03 ± 0.11 kcal/mol in data set [3].

Regarding “SAGGSAGGSAGGKVAIVTASPEKAKEIAKKAGIKDVIIIPKNKPELLGPNVDKVILVAEKSAGGSAGGSAGG [r7_381_TrMRF]”, the “folding stability dG unfold” value in data set [1] is -1.94 ± 0.33 kcal/mol; in data set [2] it was -0.629 ± 0.066 kcal/mol; in data set [3] it was below -1 kcal/mol.

In the case of “SAGGSAGGSAGGKVLKIKFSSIEEILEYIKNNDSVTIVVLDENDNPIGTITVEVKPGSLSAGGSAGGSAGGS [r10_193_TrMRF]”, the “folding stability dG unfold” value in data set [1] was 2.89 ± 0.039 kcal/mol; in data set [2], 1.67 ± 0.046 kcal/mol; in data set [3], 2.5 ± 0.092 kcal/mol.

In the case of “SAGGSAGGSAGGKVTIEFPTSRVELYPLPGPFVLAEVSFPNRKLLALAHPDGDEILILPISAGGSAGGSAGG [r7_683_TrMRF]”, the “folding stability dG unfold” value in data set [1] was found to be 1.05 ± 0.082 kcal/mol; in data set [2], 0.929 ± 0.028 kcal/mol; in data set [3], 1.07 ± 0.042 kcal/mol.

Take “SAGGSAGGSAGGKVYFLPDNTVVYELPDGLYLAVTVNENGEPSRTLYRVLSPTEIKPFPLSAGGSAGGSAGG [r7_423_TrMRF]”: the “folding stability dG unfold” value in data set [1] is 1.66 ± 0.034 kcal/mol; in data set [2], 1.65 ± 0.024 kcal/mol; in data set [3] it was 1.72 ± 0.035 kcal/mol.

With “SAGGSAGGSAGGKWRPITFPFPDGWYLQIYMNPDGDVKAEIYNPDGKPVEKTFPPGEPIFSAGGSAGGSAGG [r7_215_TrROS]”, the “folding stability dG unfold” value in data set [1] turned out to be 1.67 ± 0.02 kcal/mol; in data set [2], 1.25 ± 0.027 kcal/mol; in data set [3], 1.55 ± 0.054 kcal/mol.

Turning to “SAGGSAGGSAGGLDLSVPGLTSVTPVLLEDPRGYVTTVYTTTYPDGTVLTHTTVLPASLLSAGGSAGGSAGG [r7_214_JUSTAS]”, the “folding stability dG unfold” value in data set [1] is 1.16 ± 0.031 kcal/mol; in data set [2] it was 1.09 ± 0.025 kcal/mol; in data set [3] it was 1.16 ± 0.024 kcal/mol.

Regarding “SAGGSAGGSAGGLEIVKEVIKNPLKNEPVEVLILIEKKEEPIEKTDLFEIPVKITIIPLSAGGSAGGSAGGS [r10_459_JUSTAS]”, the “folding stability dG unfold” value came to 0.152 ± 0.16 kcal/mol in data set [1], 1.29 ± 0.11 kcal/mol in data set [2] and 0.812 ± 0.19 kcal/mol in data set [3].

“SAGGSAGGSAGGLKDALENGYVMIDFEIYNPPNGEPIGEITIMVKVPKPEPDEDGNWQLVSAGGSAGGSAGG [r7_959_TrROS]”: the figures for the “folding stability dG unfold” value in data set [1], in data set [2] and in data set [3] were 0.941 ± 0.06 kcal/mol, 1.34 ± 0.086 kcal/mol and 1.26 ± 0.16 kcal/mol, respectively.

“SAGGSAGGSAGGLKPGQKVAVFVKVKVKLYRDPATNELTEEVEIEDVFVVDAETKELLLSAGGSAGGSAGGS [r10_248_TrROS_Hall]”: the figures for the “folding stability dG unfold” value in data set [1], in data set [2] and in data set [3] were 2.64 ± 0.071 kcal/mol, 1.98 ± 0.13 kcal/mol and 2.45 ± 0.12 kcal/mol, respectively.

On to “SAGGSAGGSAGGLLEIELPSRRILVELKLELKDGKLVKLEIKVKYEGREPEPLTSPEYKSAGGSAGGSAGGS [r10_1043_TrMRF]”, for which the “folding stability dG unfold” value in data set [1] came to 1.94 ± 0.17 kcal/mol; in data set [2] it was 1.71 ± 0.14 kcal/mol; in data set [3], 1.76 ± 0.44 kcal/mol.

As to “SAGGSAGGSAGGLPEDDNYVRVKITFTIMMMEFDPKNGKMQMFPISIEIEIYIPPGAELSAGGSAGGSAGGS [r10_133_TrROS]”, the “folding stability dG unfold” value in data set [1] stood at 3.6 ± 0.25 kcal/mol; in data set [2], 2.36 ± 0.12 kcal/mol; in data set [3] it was 3.26 ± 0.22 kcal/mol.

Turning to “SAGGSAGGSAGGLPNIPGFVLLETYSETFNVPLPENRTATITKTLILHPNALLESYSINPSAGGSAGGSAGG [r7_945_TrMRF]”, the “folding stability dG unfold” value was -0.353 ± 0.23 kcal/mol in data set [1], -0.198 ± 0.27 kcal/mol in data set [2] and -0.251 ± 0.27 kcal/mol in data set [3].

With “SAGGSAGGSAGGLVPPDAVIPTETTAEEPVYVIDPVTGELTPIGPGVVRRKITRRVPRPSAGGSAGGSAGGS [r10_1115_JUSTAS]”, the “folding stability dG unfold” value in data set [1] was 0.863 ± 0.056 kcal/mol; in data set [2], -0.968 ± 0.22 kcal/mol; in data set [3], 0.514 ± 0.11 kcal/mol.

With “SAGGSAGGSAGGMALIKLPNGEVQPVKIKAIDPDGNILVEPENSEWQTFSFDGLEIIPLPSAGGSAGGSAGG [r7_823_TrMRF]”, the “folding stability dG unfold” value stood at 0.955 ± 0.16 kcal/mol in data set [1], 0.647 ± 0.041 kcal/mol in data set [2] and 0.886 ± 0.16 kcal/mol in data set [3].
